In the supplement of paper PMC12783771:
± gives the standard deviation of the averaged measurements.

B1: library; numbered along this chain (parent)
chain: MNIQIGELAKRTACPVVTIRFYEQEGLLPPPGRSRGNFRLYGEEHVERLQFIRHCRSLDMPLSDVRTLLSYRKRPDQDCGEVNMLLDEHIRQVESRIGALLELKHHLVELREACSGARPAQSCGILQGLSDCVCDTRGTTAHPSD

How the values were obtained:
[1] = variants of: B1; assay: sfGFP reporter fluorescence (15 h) (µM FITC); higher = higher leak; details: library round: Round 1; ligand: none
Procedure: (§1)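 Cell-free biosensing: 1 µL Echo-assembled CFE reactions with linear PbrR variant templates (5 nM) and pPbrR-sfGFP reporter, with 1 µM Pb, 30 µM Zn or no ligand; endpoint sfGFP fluorescence after 15 h at 30 °C calibrated as µM FITC. Round 1 ML-predicted PbrR mutants; 3 biological replicates.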

[2] = variants of: B1; assay: sfGFP reporter fluorescence (15 h) (µM FITC); higher = stronger transcriptional activation; details: library round: Round 1
Procedure: as §1

Variant | sfGFP reporter fluorescence [1] | sfGFP reporter fluorescence ([2]; ligand: 1 µM Pb) | sfGFP reporter fluorescence ([2]; ligand: 30 µM Zn)
N83S K104V | 0.064 ± 0.0016 | 0.121 ± 0.0056 | 0.405 ± 0.015
P61N E112V | 0.0641 ± 0.0026 | 0.0906 ± 0.0036 | 0.387 ± 0.058
D64K N83T R111L | 0.0651 ± 0.0024 | 0.125 ± 0.0074 | 0.532 ± 0.049
M60L P61N D64K L107C G128M | 2.5 ± 0.028 | 2.54 ± 0.22 | 2.51 ± 0.45
N83S E94D K104A | 0.05986 ± 0.00042 | 0.0734 ± 0.0052 | 0.422 ± 0.014
P61N L62I | 0.0668 ± 0.0015 | 0.0856 ± 0.0013 | 0.379 ± 0.015
M60F P61N D64K | 0.624 ± 0.057 | 1.61 ± 0.059 | 1.82 ± 0.16
D64A I97M | 0.0644 ± 0.002 | 0.0781 ± 0.0023 | 0.507 ± 0.02
E43Y P61N | 0.0713 ± 0.0038 | 0.139 ± 0.0038 | 0.822 ± 0.12
N83S V108N | 0.0632 ± 0.0015 | 0.0665 ± 0.0043 | 0.146 ± 0.0045
P61N D64K D131C | 0.119 ± 0.0056 | 0.297 ± 0.065 | 0.868 ± 0.068
P61L D64K | 0.06157 ± 0.00037 | 0.0655 ± 0.0074 | 0.06389 ± 0.00056
L58F M60L P61N | 0.091 ± 0.002 | 0.191 ± 0.051 | 0.61 ± 0.095
P61D D64K E112H | 0.156 ± 0.0048 | 0.345 ± 0.087 | 1.36 ± 0.14
P61N L68F I90T | 0.0702 ± 0.0011 | 0.0958 ± 0.017 | 0.435 ± 0.044
G36F M60L P61N | 0.0662 ± 0.0022 | 0.0735 ± 0.0027 | 0.143 ± 0.007
P61N V108M R111C | 0.0735 ± 0.00085 | 0.0925 ± 0.013 | 0.237 ± 0.0083
E43C K104V | 0.065 ± 0.0013 | 0.0922 ± 0.0039 | 0.162 ± 0.011
G32A D131C | 0.0613 ± 0.0022 | 0.0707 ± 0.0055 | 0.147 ± 0.0097
D64A E94R | 0.0816 ± 0.0051 | 0.179 ± 0.013 | 1.44 ± 0.18
G36K P61N | 0.0721 ± 0.0043 | 0.112 ± 0.0096 | 0.588 ± 0.075
P61N C134M | 0.102 ± 0.0054 | 0.233 ± 0.0043 | 1.53 ± 0.14
P61N C134V | 0.095 ± 0.0057 | 0.189 ± 0.051 | 1.26 ± 0.21

Variant | sfGFP reporter fluorescence [1] | sfGFP reporter fluorescence ([2]; ligand: 1 µM Pb) | sfGFP reporter fluorescence ([2]; ligand: 30 µM Zn)
P61N R111L | 0.0644 ± 0.0014 | 0.0861 ± 0.0066 | 0.265 ± 0.025
D64T Q127G | 0.0611 ± 0.004 | 0.0887 ± 0.0049 | 0.594 ± 0.062
N83T D131S P143Y | 0.0614 ± 0.0015 | 0.0782 ± 0.0092 | 0.144 ± 0.014
N83T D131S P143A | 0.059 ± 0.0033 | 0.0792 ± 0.0071 | 0.156 ± 0.017
P61N I90L K104G | 0.0641 ± 0.0019 | 0.0616 ± 0.0054 | 0.119 ± 0.012
D64A R111L | 0.061 ± 0.0013 | 0.105 ± 0.01 | 0.743 ± 0.022
D64I R111L | 0.0903 ± 0.0015 | 0.254 ± 0.032 | 1.39 ± 0.12
P61T I97N K104V | 0.0652 ± 0.0013 | 0.0689 ± 0.0055 | 0.169 ± 0.017
N83T C123L | 0.0594 ± 0.0013 | 0.0586 ± 0.0016 | 0.059 ± 0.0017
M60L D64K G128T D135A | 0.874 ± 0.016 | 1.32 ± 0.071 | 2.33 ± 0.27
E81Q | 0.0605 ± 0.0017 | 0.0673 ± 0.0016 | 0.189 ± 0.022
D64K I97A | 0.2087 ± 0.002 | 0.581 ± 0.17 | 2.21 ± 0.066
D64K I97S | 0.0966 ± 0.0019 | 0.216 ± 0.016 | 1.09 ± 0.074
M60L D131C | 0.0866 ± 0.0039 | 0.248 ± 0.025 | 0.694 ± 0.081
P61N D135R | 0.0732 ± 0.00085 | 0.164 ± 0.0087 | 0.708 ± 0.075
P61N D135A | 0.0764 ± 0.0016 | 0.152 ± 0.014 | 0.791 ± 0.096
D64K R111D | 0.0666 ± 0.00092 | 0.164 ± 0.011 | 0.682 ± 0.097
D64K R111L | 0.06487 ± 0.00064 | 0.154 ± 0.013 | 0.898 ± 0.071
D64K R111A | 0.112 ± 0.0044 | 0.382 ± 0.052 | 1.83 ± 0.27
D64L K104V L107R | 0.0627 ± 0.0017 | 0.0614 ± 0.0042 | 0.0593 ± 0.0044
D64T R111F | 0.09114 ± 0.00056 | 0.181 ± 0.022 | 1.71 ± 0.025
D64T R111A | 0.173 ± 0.0098 | 0.246 ± 0.078 | 2.17 ± 0.2
D64A K104C | 0.115 ± 0.002 | 0.342 ± 0.031 | 1.25 ± 0.076

Variant | sfGFP reporter fluorescence [1] | sfGFP reporter fluorescence ([2]; ligand: 1 µM Pb) | sfGFP reporter fluorescence ([2]; ligand: 30 µM Zn)
D64K N83T | 0.0636 ± 0.0021 | 0.186 ± 0.009 | 0.695 ± 0.022
D64K N83F | 0.0616 ± 0.0024 | 0.198 ± 0.035 | 0.143 ± 0.01
N83M D131A | 0.0614 ± 0.0015 | 0.0845 ± 0.004 | 0.065 ± 0.0015
P61D D64K L107C G128M | 1.99 ± 0.49 | 2.06 ± 0.23 | 2.38 ± 0.037
D64T E88A C134E | 0.204 ± 0.031 | 0.238 ± 0.062 | 1.65 ± 0.15
P61D D64M R111L | 0.177 ± 0.015 | 0.323 ± 0.09 | 1.43 ± 0.099
M60L D64K E81A R111A | 0.488 ± 0.013 | 1.37 ± 0.17 | 2.16 ± 0.59
N83T D131S D135A | 0.0613 ± 0.0024 | 0.0871 ± 0.0043 | 0.193 ± 0.0075
N83T D131S D135R | 0.064 ± 0.0013 | 0.0955 ± 0.0087 | 0.21 ± 0.0094
N83T D131M D135A | 0.0656 ± 0.0024 | 0.0837 ± 0.0023 | 0.205 ± 0.011
P61A L107C G128M | 1.26 ± 0.063 | 1.47 ± 0.35 | 2.25 ± 0.16
C55L M60L P61N D64K | 0.071 ± 0.0012 | 0.0878 ± 0.0025 | 0.382 ± 0.0068
D64I D135T | 0.164 ± 0.02 | 0.514 ± 0.04 | 1.63 ± 0.29
M60L D64K R111L | 0.205 ± 0.0039 | 0.676 ± 0.1 | 1.99 ± 0.49
N83S R111D | 0.0636 ± 0.0039 | 0.0665 ± 0.0026 | 0.0759 ± 0.00097
N83S R111C | 0.06169 ± 0.00056 | 0.0672 ± 0.002 | 0.0665 ± 0.0011
P61S G128I D131C | 0.12 ± 0.0019 | 0.286 ± 0.053 | 1.25 ± 0.2
D64T N83T R111I | 0.0783 ± 0.0017 | 0.156 ± 0.014 | 1.12 ± 0.13
L58F P61N | 0.0663 ± 0.0015 | 0.0952 ± 0.0084 | 0.219 ± 0.02
N83M D135A | 0.0564 ± 0.0017 | 0.102 ± 0.0031 | 0.07 ± 0.0044
N83S P143W | 0.0614 ± 0.0019 | 0.102 ± 0.012 | 0.556 ± 0.027
M60L D135A | 0.0914 ± 0.0019 | 0.258 ± 0.02 | 1.4 ± 0.16
C55L K104V | 0.0651 ± 0.0015 | 0.0729 ± 0.004 | 0.121 ± 0.0031

Variant | sfGFP reporter fluorescence [1] | sfGFP reporter fluorescence ([2]; ligand: 1 µM Pb) | sfGFP reporter fluorescence ([2]; ligand: 30 µM Zn)
D64K E112F | 0.06988 ± 0.00056 | 0.145 ± 0.0047 | 0.802 ± 0.055
P61N E94A | 0.0757 ± 0.0021 | 0.15 ± 0.0094 | 0.977 ± 0.065
P61N E94C | 0.0858 ± 0.0022 | 0.186 ± 0.015 | 0.781 ± 0.13
P61N E94V | 0.07452 ± 0.00056 | 0.145 ± 0.009 | 0.747 ± 0.049
M60L P61N D64K K104V L107E G128I | 0.0622 ± 0.0024 | 0.0589 ± 0.0018 | 0.0596 ± 0.0016
D64T L107C | 2.07 ± 0.33 | 2.22 ± 0.12 | 2.63 ± 0.3
N83R L107H | 0.0594 ± 0.00064 | 0.0632 ± 0.0012 | 0.0662 ± 0.0035
D64K K104E | 0.0882 ± 0.0047 | 0.31 ± 0.058 | 1.65 ± 0.039
P29L | 0.0608 ± 0.0015 | 0.0704 ± 0.0041 | 0.213 ± 0.0041
P61D D64K D135A | 0.15 ± 0.0062 | 0.321 ± 0.036 | 1.12 ± 0.11
C79F G128M | 0.0586 ± 0.0017 | 0.0606 ± 0.0011 | 0.0597 ± 0.00073
D64K I90C K104V | 0.0914 ± 0.0024 | 0.341 ± 0.073 | 0.959 ± 0.086
D64K C114F | 0.0621 ± 0.0032 | 0.0613 ± 0.0011 | 0.0596 ± 0.0016
D64K C114I | 0.05986 ± 0.00056 | 0.0594 ± 0.0011 | 0.0599 ± 0.0022
V82I E112I D131C | 0.0625 ± 0.0026 | 0.0635 ± 0.0028 | 0.0669 ± 0.0057
D64T K104T | 0.207 ± 0.0096 | 0.472 ± 0.087 | 1.83 ± 0.16
N83I D131S | 0.063 ± 0.0013 | 0.0862 ± 0.0031 | 0.0633 ± 0.0013
P61D D64K | 0.168 ± 0.0064 | 0.454 ± 0.038 | 1.44 ± 0.17
C55V K104V | 0.0621 ± 0.00092 | 0.0644 ± 0.0017 | 0.107 ± 0.0044
P30A K104V | 0.0666 ± 0.0032 | 0.115 ± 0.011 | 0.583 ± 0.05
